Article PMC4818849, “In vitroassembly of the bacterial actin protein MamK from ‘CandidatusMagnetobacterium casensis’ in the phylumNitrospirae” (Protein & Cell, 2016)

Substrate: Nc1ncnc2c1ncn2[C@@H]1O[C@H](COP(=O)(O)OP(=O)(O)OP(=O)(O)O)[C@@H](O)[C@H]1O
Experiment: ATPase, malachite green phosphate release, Lineweaver-Burk plot
Assay type: biochemical, Magnetobacterium casense (SeqCode)
Conditions: assay buffer of b46: 20 mmol/L Tris-HCl pH 8.0, 0.2 mmol/L MgCl2, 50 mmol/L NaCl, 37°C, kinetic details in supplement
Source text: ATPase, malachite green phosphate release, Lineweaver-Burk plot on MamK from 'Candidatus Magnetobacterium casensis' (Mcas MamK) | we calculated the Vmax and Km of the ATPase activity as […]

B1: MamK from 'Candidatus Magnetobacterium casensis' (Mcas MamK) (Magnetobacterium casense (SeqCode)) (protein)
chain: MTKTKILNIGIDLGTSRSVIACDNGVRTFVPSYVGFPKDAVSRKMFGRDVIFGDEAIKHRMALNLFRPFDKGMIKYADTNPESKEYKNALYVAKALLQHLVDLAKEGDQERGVDYIVRGVIGAPALASRKNRKALLDVARGILDGVMISSEPFTVAYGLNLLSNALIIDIGAGTVDLCRMHGTIPTDEDQITTFKAGDYVDQAFYDLITKKYKDVNLTINMVKKFKEENAFISSQGERVFIEVPVKGKPEKRDITDELRQACRMIVPDIVEGIRKLIAEYDPEFQNNLKQNVVLAGGGSQIIGLRKEIEDYMIETLGYGKVIKIEEPLFAGANGAMMLCKDMPDEYWDEVSKR
notes: full-length mamK from Mcas genomic DNA in pET28a and pET22b, E. coli C43 (DE3); His tag removed leaving three N-terminal residues (tagged forms also examined); filament-forming
  Km: 71.02 µM
  kcat: 0.0633 s⁻¹
